Experimental data from the supplement of paper PMC12783771.
± gives the standard deviation of the averaged measurements.

B1: library; a variant is named by its letters at X, in order (parent)
chain: MNIQIGELAKRTACPVVTIRFYEQEGLLPPPGRSRGNFRLYGEEHVERLQFIRHCRSLDMPLSDVRTLLSYRKRPDQDCGEVXMLLDEHIRQVESRIGALLELKHHLVELREACSGARPAQSCGILQXLSXCVCXTRGTTAHXSD

Experiments:
[1] = variants of: B1; test: sfGFP reporter fluorescence (15 h) (µM FITC); higher = higher leak; details: library round: Round 2; ligand: none
Procedure: (§1)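 Cell-free biosensing: 1 µL Echo-assembled CFE reactions with linear PbrR variant templates (5 nM) and pPbrR-sfGFP reporter, with 1 µM Pb, 30 µM Zn or no ligand; endpoint sfGFP fluorescence after 15 h at 30 °C calibrated as µM FITC. Round 2 ML-predicted PbrR mutants; up to 3 biological replicates.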

[2] = variants of: B1; test: sfGFP reporter fluorescence (15 h) (µM FITC); higher = stronger transcriptional activation; details: library round: Round 2
Procedure: as §1

| Variant | sfGFP reporter fluorescence [1] | sfGFP reporter fluorescence ([2]; ligand: 1 µM Pb) | sfGFP reporter fluorescence ([2]; ligand: 30 µM Zn) |
| --- | --- | --- | --- |
| NGSAY L107V | 0.12 ± 0.017 | 0.238 ± 0.042 | 1.97 ± 0.17 |
| NGDAP P61D D64K L107C | 2.53 ± 0.22 | 1.89 ± 0.26 | 2.38 ± 0.23 |
| SGDDW V108L | 0.0515 ± 0.0023 | 0.0672 ± 0.0033 | 0.247 ± 0.031 |
| NGDAY L110V | 0.0649 ± 0.005 | 0.0584 ± 0.0031 | 0.445 ± 0.032 |
| NGDDW R74Q G138A | 0.0503 ± 0.0034 | 0.05902 ± 0.00051 | 0.58 ± 0.017 |
| NGADY V133A | 0.0753 ± 0.0056 | 0.124 ± 0.0081 | 1.15 ± 0.1 |
| TGSDY Q121A | 0.0567 ± 0.0051 | 0.0961 ± 0.0073 | 0.443 ± 0.056 |
| TGDDP L107I E112A | 0.0475 ± 0.0007 | 0.131 ± 0.0047 | 0.511 ± 0.039 |
| NGDRP D64T E88A | 0.369 ± 0.048 | 0.499 ± 0.14 | 3.13 ± 0.29 |
| NGDDP D64K V108E R111L | 0.0746 ± 0.0031 | 0.165 ± 0.012 | 1.8 ± 0.29 |
| NADAP K104R | 0.123 ± 0.0024 | 0.419 ± 0.072 | 2.34 ± 0.033 |
| NGADP M60L D64K | 1.59 ± 0.28 | 2.6 ± 0.28 | 3.98 ± 0.16 |
| NGDDP M60L P61N D64K K104V L107C | 0.716 ± 0.071 | 2.14 ± 0.18 | 3.11 ± 0.31 |
| NGADP V133P C134V | 0.0817 ± 0.0086 | 0.0967 ± 0.019 | 2.1 ± 0.36 |
| NGSPL | 0.077 ± 0.0065 | 0.141 ± 0.014 | 1.2 ± 0.12 |
| NGSPA | 0.0677 ± 0.013 | 0.114 ± 0.019 | 0.999 ± 0.13 |
| TGCDI | 0.0463 ± 0.0019 | 0.0711 ± 0.0029 | 0.0916 ± 0.0046 |
| TGCDA | 0.0468 ± 0.0016 | 0.0758 ± 0.0041 | 0.0857 ± 0.0083 |
| TGCDL | 0.045 ± 0.00089 | 0.0743 ± 0.011 | 0.0958 ± 0.0017 |
| TGCDT | 0.0478 ± 0.0007 | 0.0731 ± 0.0033 | 0.0847 ± 0.0041 |
| SADAP | 0.0791 ± 0.013 | 0.19 ± 0.019 | 2.33 ± 0.44 |
| NGDDP D87E S95A K104V R111A | 0.0648 ± 0.0053 | 0.0918 ± 0.0068 | 0.74 ± 0.092 |

| Variant | sfGFP reporter fluorescence [1] | sfGFP reporter fluorescence ([2]; ligand: 1 µM Pb) | sfGFP reporter fluorescence ([2]; ligand: 30 µM Zn) |
| --- | --- | --- | --- |
| SGDDP I90L D145A | 0.0442 ± 0.0022 | 0.046 ± 0.001 | 0.122 ± 0.0052 |
| NGDDM I90L I125L | 0.0615 ± 0.0043 | 0.0526 ± 0.0027 | 0.0576 ± 0.0035 |
| TGDDY V82I L129I | 0.0454 ± 0.0012 | 0.0463 ± 0.00051 | 0.0601 ± 0.013 |
| NGDDP | 0.0488 ± 0.0061 | 0.0602 ± 0.0046 | 0.684 ± 0.074 |
| NGLAP P61T | 0.217 ± 0.015 | 0.402 ± 0.021 | 1.9 ± 0.27 |
| TGNDP I90L | 0.0469 ± 0.0017 | 0.0573 ± 0.0011 | 0.192 ± 0.014 |
| IGDDR K104V H106A | 0.0522 ± 0.00085 | 0.136 ± 0.0052 | 0.0496 ± 0.0028 |
| TGADP V108L | 0.0451 ± 0.00078 | 0.0942 ± 0.0052 | 0.321 ± 0.0054 |
| TGSAP V108L | 0.0457 ± 0.0012 | 0.102 ± 0.0018 | 0.475 ± 0.012 |
| NGADY L107C | 1.36 ± 0.23 | 2.4 ± 0.18 | 3.25 ± 0.18 |
| NGDAL L110I | 0.0605 ± 0.0082 | 0.0575 ± 0.0038 | 0.953 ± 0.064 |
| TGDDP E109D E112K | 0.0468 ± 0.0013 | 0.0781 ± 0.0022 | 0.418 ± 0.034 |
| NEDAT | 0.0492 ± 0.001 | 0.0597 ± 0.0011 | 0.594 ± 0.053 |
| NGADP M60L P61N D64K | 0.804 ± 0.17 | 1.38 ± 0.2 | 2.82 ± 0.43 |
| NGDAP D64T Q127G | 0.0728 ± 0.0058 | 0.121 ± 0.013 | 1.87 ± 0.15 |
| TGDDP R111D E112H | 0.0469 ± 0.002 | 0.0446 ± 0.0019 | 0.0529 ± 0.003 |
| NGAPL | 0.0797 ± 0.0073 | 0.16 ± 0.0081 | 1.22 ± 0.26 |
| NGAPY | 0.0801 ± 0.0048 | 0.159 ± 0.0087 | 1.13 ± 0.12 |
| NGADT C134V | 0.103 ± 0.013 | 0.155 ± 0.03 | 2.64 ± 0.21 |
| SGDDP L85Y K104V | 0.0628 ± 0.0056 | 0.0671 ± 0.0055 | 0.248 ± 0.027 |
| TGCDT L129I | 0.0433 ± 0.0032 | 0.0464 | 0.0525 ± 0.0028 |
| NGDDW L110I S115G | 0.0528 ± 0.0019 | 0.0476 ± 0.0019 | 0.325 ± 0.019 |

| Variant | sfGFP reporter fluorescence [1] | sfGFP reporter fluorescence ([2]; ligand: 1 µM Pb) | sfGFP reporter fluorescence ([2]; ligand: 30 µM Zn) |
| --- | --- | --- | --- |
| NGSAA K104R | 0.0641 ± 0.0074 | 0.097 ± 0.0024 | 1.05 ± 0.14 |
| TGDAA E112I | 0.04637 ± 0.00034 | 0.0525 ± 0.0024 | 0.108 ± 0.0066 |
| NGCDR K104R | 0.047 ± 0.0037 | 0.0672 ± 0.0019 | 0.0986 ± 0.0051 |
| NGDDP P61E D64K E112H | 0.157 ± 0.027 | 0.377 ± 0.021 | 1.95 ± 0.22 |
| NGDPP M84A R111A | 0.0671 ± 0.0045 | 0.0854 ± 0.013 | 0.919 ± 0.12 |
| TGDDP V82I L85K | 0.0407 ± 0.0021 | 0.0368 ± 0.00078 | 0.0458 ± 0.0007 |
| TGSDP V108L | 0.0452 ± 0.0017 | 0.0823 ± 0.0056 | 0.229 ± 0.022 |
| NADDP P61N D64K K104V | 0.917 ± 0.079 | 1.61 ± 0.16 | 3.1 ± 0.27 |
| TGDDL T139A | 0.0436 ± 0.001 | 0.0619 ± 0.0082 | 0.241 ± 0.015 |
| NGCDP I125V L129M | 0.0493 ± 0.0017 | 0.0435 ± 0.0022 | 0.0493 ± 0.003 |
| TGDAL V108L | 0.0451 ± 0.0016 | 0.073 ± 0.0021 | 0.281 ± 0.0062 |
| NGCAP S130A | 0.0466 ± 0.011 | 0.0819 ± 0.0045 | 0.429 ± 0.066 |
| NGHAY | 0.0533 ± 0.003 | 0.0816 ± 0.0062 | 0.791 ± 0.037 |
| NGCDA L107C | 0.757 ± 0.089 | 1.68 ± 0.17 | 3.37 ± 0.31 |
| NGAAS | 0.0633 ± 0.001 | 0.107 ± 0.011 | 1.08 ± 0.1 |
| TGDDP I97A K104G | 0.0644 ± 0.0063 | 0.155 ± 0.025 | 0.412 ± 0.04 |
| TGDDP R96A K104V | 0.052 ± 0.0012 | 0.0513 ± 0.0043 | 0.0712 ± 0.0018 |
| TGDDP V108L E112F | 0.0469 ± 0.0011 | 0.0496 ± 0.0032 | 0.0846 ± 0.0051 |
| TGHPY | 0.0455 ± 0.0011 | 0.116 ± 0.0064 | 0.214 ± 0.017 |
| TGDDP D64T R111L | 0.0779 ± 0.0063 | 0.151 ± 0.011 | 1.9 ± 0.12 |
| TGDDP D64T R111A | 0.09 ± 0.012 | 0.212 ± 0.024 | 2.38 ± 0.096 |
| TGSPP | 0.0436 ± 0.0022 | 0.125 ± 0.0052 | 0.305 ± 0.0072 |

| Variant | sfGFP reporter fluorescence [1] | sfGFP reporter fluorescence ([2]; ligand: 1 µM Pb) | sfGFP reporter fluorescence ([2]; ligand: 30 µM Zn) |
| --- | --- | --- | --- |
| NGDAP P61N D64T E112I | 0.11 ± 0.014 | 0.308 ± 0.03 | 1.7 ± 0.2 |
| SGDVP K104V | 0.067 ± 0.0056 | 0.134 ± 0.0074 | 1.3 ± 0.15 |
| NGDAR E112I | 0.0495 ± 0.0017 | 0.054 ± 0.002 | 0.35 ± 0.016 |
| TGCAP Q121A | 0.0482 ± 0.0011 | 0.0978 ± 0.0067 | 0.156 ± 0.0046 |
| NGDDP M60F P61N D64K K104V | 0.395 ± 0.16 | 0.744 ± 0.16 | 2.04 ± 0.33 |
| TGDDP K104R E112F | 0.0494 ± 0.00089 | 0.0553 ± 0.0034 | 0.111 ± 0.0062 |
| NGCDP M60L P61N D64K K104V | 0.179 ± 0.016 | 0.384 ± 0.049 | 1.39 ± 0.088 |
| NGDAM Q121A | 0.0666 ± 0.0079 | 0.106 ± 0.0059 | 1.36 ± 0.13 |
| NGDAP M60L D64K | 1.45 ± 1.3 | 1.27 ± 0.82 | 3.35 ± 0.63 |
| TGDDY E112I | 0.0493 ± 0.0015 | 0.0522 ± 0.0014 | 0.076 ± 0.0028 |
| TGDRP L107C | 0.176 ± 0.016 | 1.17 ± 0.063 | 2.94 ± 0.2 |
| NGDAP L129I H142A | 0.0458 ± 0.0024 | 0.0491 ± 0.0012 | 0.302 ± 0.012 |
| NGDAL P61N | 0.0792 ± 0.0022 | 0.235 ± 0.018 | 1.57 ± 0.074 |
| NGDPP G124S I125L | 0.0484 ± 0.0015 | 0.0455 ± 0.0014 | 0.0506 ± 0.001 |
| SGMAP | 0.0668 ± 0.0035 | 0.0819 ± 0.0034 | 0.586 ± 0.076 |
| SGDAY | 0.0491 ± 0.0015 | 0.0749 ± 0.0032 | 0.399 ± 0.039 |
| SGDAA | 0.0628 ± 0.0043 | 0.0745 ± 0.0027 | 0.449 ± 0.062 |
| TGDAP E109L | 0.043 ± 0.0023 | 0.0797 ± 0.0069 | 0.366 ± 0.035 |
| NGCDP P61N H106A | 0.0622 ± 0.0038 | 0.166 ± 0.0088 | 0.457 ± 0.079 |
| NGDDP P61N L107C E109H | 0.627 ± 0.1 | 1.51 ± 0.22 | 2.62 ± 0.31 |
| TGDDM V108L | 0.0605 ± 0.0032 | 0.0645 ± 0.0026 | 0.209 ± 0.025 |
| TGDDA E25V | 0.0619 ± 0.0073 | 0.072 ± 0.0079 | 0.252 ± 0.031 |
